We go through one substance from patent US20130195807A1.

This test concerns the target GHRH receptor (GHRH-R) of rat insulinoma INS-1 cells (rat) (UniProt Q02644). In words: cell-based or functional assay.
UniProt Q02644, sequence (Q02644 23-464): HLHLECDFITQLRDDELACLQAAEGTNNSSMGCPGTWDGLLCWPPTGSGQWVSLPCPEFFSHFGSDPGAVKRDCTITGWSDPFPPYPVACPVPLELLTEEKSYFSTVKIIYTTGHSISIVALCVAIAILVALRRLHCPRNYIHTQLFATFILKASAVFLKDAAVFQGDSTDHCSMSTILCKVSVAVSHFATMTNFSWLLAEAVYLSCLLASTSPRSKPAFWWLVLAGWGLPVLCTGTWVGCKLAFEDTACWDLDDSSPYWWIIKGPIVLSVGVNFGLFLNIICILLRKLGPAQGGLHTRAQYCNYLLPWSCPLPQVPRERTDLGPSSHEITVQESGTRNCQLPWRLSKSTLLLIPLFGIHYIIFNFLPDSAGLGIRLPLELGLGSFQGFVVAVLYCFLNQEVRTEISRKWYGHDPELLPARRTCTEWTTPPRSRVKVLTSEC

For the substance “GHRH agonist JI-36, (Dat1, Thr8, Orn12,21, Abu15, Nle27, Asp28, Agm29)hGH-RH(1-29) (peptide)”, the apoptosis of INS-1 cells as indicated by activity of caspases 3 and 7 was determined as 20 % reduction; the cell proliferation of INS-1 cells amounted to 50 % increase.
